Target: T1, His-tagged Rad51 (mouse, UniProt Q08297 1-339)
T1 construct: Rad51, mouse; The bacterial expression construct is not described; source: bacterially expressed, purified (Ni superflow beads)
T1 sequence (looked up): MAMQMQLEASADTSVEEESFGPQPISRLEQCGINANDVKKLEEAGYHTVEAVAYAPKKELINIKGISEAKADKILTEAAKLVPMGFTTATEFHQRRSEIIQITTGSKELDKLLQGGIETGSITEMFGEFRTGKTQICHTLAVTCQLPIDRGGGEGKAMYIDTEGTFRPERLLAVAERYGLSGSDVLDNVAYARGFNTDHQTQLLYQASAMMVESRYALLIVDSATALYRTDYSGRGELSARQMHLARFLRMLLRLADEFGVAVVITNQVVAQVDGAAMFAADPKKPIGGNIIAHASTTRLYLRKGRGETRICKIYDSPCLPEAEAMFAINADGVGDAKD
Experiment: pull-down; purified GST-tagged Nanog or fragments on glutathione-sepharose beads, incubated with purified His-tagged Rad51 at 4 °C overnight; washed 4 times with lysis buffer; western blot with anti-Rad51
Settings: both partners purified

binding result: binds
B1: GST-tagged Nanog (natural protein, mouse, UniProt Q80Z64 1-305, looked up)
chain: MSVGLPGPHSLPSSEEASNSGNASSMPAVFHPENYSCLQGSATEMLCTEAASPRPSSEDLPLQGSPDSSTSPKQKLSSPEADKGPEEEENKVLARKQKMRTVFSQAQLCALKDRFQKQKYLSLQQMQELSSILNLSYKQVKTWFQNQRMKCKRWQKNQWLKTSNGLIQKGSAPVEYPSIHCSYPQGYLVNASGSLSMWGSQTWTNPTWSSQTWTNPTWNNQTWTNPTWSSQAWTAQSWNGQPWNAAPLHNFGEDFLQPYVQLQQNFSASDLEVNLEATRESHAHFSTPQALELFLNYSVTPPGEI
notes: Nanog, mouse; The bacterial expression construct is not described; also called full-length Nanog; FL; source: E. coli BL21, purified (Glutathione-Sepharose)
